# Columns and labels:
# CD45RA (human) [1] = target: CD45RA (human) (UniProt P08575); assay: FACS on Jurkat B2.7 cells; background subtracted, rounded to nearest ten
# CD45RA (human) [2] = target: CD45RA (human) (UniProt P08575); assay: FACS on Jurkat D1.1 cells; background subtracted, rounded to nearest ten
# CD7 (human) [3] = target: CD7 (human) (UniProt P09564); assay: FACS on Jurkat B2.7 cells; background subtracted, rounded to nearest ten
# CD7 (human) [4] = target: CD7 (human) (UniProt P09564); assay: FACS on Jurkat D1.1 cells; background subtracted, rounded to nearest ten
# CD16 (human) [5] = assay: FACS on Jurkat B2.7 cells; background subtracted, rounded to nearest ten
# Sequence of CD16 (human) (P06734 whole entry): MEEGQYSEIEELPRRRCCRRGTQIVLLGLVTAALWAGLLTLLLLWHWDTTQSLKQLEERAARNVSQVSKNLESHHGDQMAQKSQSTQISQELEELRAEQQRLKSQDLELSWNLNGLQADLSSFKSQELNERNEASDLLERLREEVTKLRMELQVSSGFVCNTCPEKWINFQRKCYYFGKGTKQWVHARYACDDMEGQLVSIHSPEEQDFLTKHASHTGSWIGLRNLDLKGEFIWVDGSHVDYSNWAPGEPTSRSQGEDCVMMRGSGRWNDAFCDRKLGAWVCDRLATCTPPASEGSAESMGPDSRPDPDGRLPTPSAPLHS
# CD16 (human) [6] = assay: FACS on Jurkat D1.1 cells; background subtracted, rounded to nearest ten
# CD29 (human) [7] = target: CD29 (human) (UniProt P05556); assay: FACS on Jurkat B2.7 cells; background subtracted, rounded to nearest ten
# CD29 (human) [8] = target: CD29 (human) (UniProt P05556); assay: FACS on Jurkat D1.1 cells; background subtracted, rounded to nearest ten
# TCRα/β (human) [9] = assay: FACS on Jurkat B2.7 cells; background subtracted, rounded to nearest ten
# TCRα/β (human) [10] = assay: FACS on Jurkat D1.1 cells; background subtracted, rounded to nearest ten
# CD5 (human) [11] = target: CD5 (human) (UniProt P06127); assay: FACS on Jurkat B2.7 cells; background subtracted, rounded to nearest ten
# Sequence of CD5 (human) (P06127 25-495): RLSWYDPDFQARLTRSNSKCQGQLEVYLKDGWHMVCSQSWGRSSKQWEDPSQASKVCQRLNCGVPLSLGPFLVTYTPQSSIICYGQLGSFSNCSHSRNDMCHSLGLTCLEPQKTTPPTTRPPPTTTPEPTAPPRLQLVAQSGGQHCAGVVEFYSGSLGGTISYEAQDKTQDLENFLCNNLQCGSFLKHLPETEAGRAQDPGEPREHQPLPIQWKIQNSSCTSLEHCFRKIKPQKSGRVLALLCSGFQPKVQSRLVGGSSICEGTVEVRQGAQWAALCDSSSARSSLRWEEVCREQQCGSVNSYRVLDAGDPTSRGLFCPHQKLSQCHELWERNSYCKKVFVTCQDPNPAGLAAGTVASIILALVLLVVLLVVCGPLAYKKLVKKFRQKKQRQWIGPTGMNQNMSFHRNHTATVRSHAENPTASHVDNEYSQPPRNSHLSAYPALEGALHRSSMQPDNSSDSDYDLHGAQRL
# CD5 (human) [12] = target: CD5 (human) (UniProt P06127); assay: FACS on Jurkat D1.1 cells; background subtracted, rounded to nearest ten
# CD3 (human) [13] = target: CD3 (human) (UniProt P07766); assay: FACS on Jurkat B2.7 cells; background subtracted, rounded to nearest ten
# Sequence of CD3 (human) (P07766 23-207): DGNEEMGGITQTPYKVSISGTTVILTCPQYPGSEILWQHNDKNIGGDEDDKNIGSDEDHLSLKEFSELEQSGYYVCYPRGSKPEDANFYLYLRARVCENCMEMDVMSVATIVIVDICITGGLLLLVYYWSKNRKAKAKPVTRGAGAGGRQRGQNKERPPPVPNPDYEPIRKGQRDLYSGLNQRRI
# CD3 (human) [14] = target: CD3 (human) (UniProt P07766); assay: FACS on Jurkat D1.1 cells; background subtracted, rounded to nearest ten
# CD4 (human) = CD4 (human) (UniProt P01730); assay: FACS on Jurkat B2.7 cells; background subtracted, rounded to nearest ten
# CD1a (human) [15] = target: CD1a (human) (UniProt P06126); assay: as above
# Sequence of CD1a (human) (P06126 17-327): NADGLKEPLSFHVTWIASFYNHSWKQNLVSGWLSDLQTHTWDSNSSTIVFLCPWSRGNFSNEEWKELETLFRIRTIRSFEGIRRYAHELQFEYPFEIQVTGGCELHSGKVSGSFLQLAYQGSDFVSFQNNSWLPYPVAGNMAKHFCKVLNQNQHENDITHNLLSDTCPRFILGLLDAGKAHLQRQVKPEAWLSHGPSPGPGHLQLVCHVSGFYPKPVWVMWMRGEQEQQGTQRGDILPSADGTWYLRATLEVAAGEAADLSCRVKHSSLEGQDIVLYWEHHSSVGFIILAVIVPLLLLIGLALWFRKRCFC
# CD1a (human) [16] = target: CD1a (human) (UniProt P06126); assay: FACS on Jurkat D1.1 cells; background subtracted, rounded to nearest ten
# CD18 (human) [17] = target: CD18 (human) (UniProt P05107); assay: FACS on Jurkat B2.7 cells; background subtracted, rounded to nearest ten
# Sequence of CD18 (human) (P05107 23-769): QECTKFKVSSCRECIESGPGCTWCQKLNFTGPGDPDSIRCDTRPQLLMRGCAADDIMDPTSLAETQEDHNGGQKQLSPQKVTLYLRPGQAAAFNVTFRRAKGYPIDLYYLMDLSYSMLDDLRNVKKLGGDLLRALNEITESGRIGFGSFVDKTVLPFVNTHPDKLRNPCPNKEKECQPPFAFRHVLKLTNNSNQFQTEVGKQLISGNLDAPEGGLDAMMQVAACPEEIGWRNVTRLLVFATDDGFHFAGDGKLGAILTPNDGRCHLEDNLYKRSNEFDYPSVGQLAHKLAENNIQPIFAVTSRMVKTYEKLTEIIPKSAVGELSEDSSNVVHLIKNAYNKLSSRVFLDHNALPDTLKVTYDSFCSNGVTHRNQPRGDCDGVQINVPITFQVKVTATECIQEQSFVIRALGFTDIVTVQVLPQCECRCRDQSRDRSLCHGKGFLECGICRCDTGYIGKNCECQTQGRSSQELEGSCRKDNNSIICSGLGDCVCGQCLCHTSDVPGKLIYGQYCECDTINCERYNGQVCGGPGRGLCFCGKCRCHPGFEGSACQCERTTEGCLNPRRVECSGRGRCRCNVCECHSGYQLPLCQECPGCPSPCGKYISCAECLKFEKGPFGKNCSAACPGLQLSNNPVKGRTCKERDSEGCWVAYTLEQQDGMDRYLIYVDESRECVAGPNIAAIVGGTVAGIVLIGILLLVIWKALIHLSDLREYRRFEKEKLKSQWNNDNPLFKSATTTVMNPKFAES
# CD18 (human) [18] = target: CD18 (human) (UniProt P05107); assay: FACS on Jurkat D1.1 cells; background subtracted, rounded to nearest ten
# CD11a (human) [19] = target: CD11a (human) (UniProt P20701); assay: FACS on Jurkat B2.7 cells; background subtracted, rounded to nearest ten
# Sequence of CD11a (human) (P20701 26-1170): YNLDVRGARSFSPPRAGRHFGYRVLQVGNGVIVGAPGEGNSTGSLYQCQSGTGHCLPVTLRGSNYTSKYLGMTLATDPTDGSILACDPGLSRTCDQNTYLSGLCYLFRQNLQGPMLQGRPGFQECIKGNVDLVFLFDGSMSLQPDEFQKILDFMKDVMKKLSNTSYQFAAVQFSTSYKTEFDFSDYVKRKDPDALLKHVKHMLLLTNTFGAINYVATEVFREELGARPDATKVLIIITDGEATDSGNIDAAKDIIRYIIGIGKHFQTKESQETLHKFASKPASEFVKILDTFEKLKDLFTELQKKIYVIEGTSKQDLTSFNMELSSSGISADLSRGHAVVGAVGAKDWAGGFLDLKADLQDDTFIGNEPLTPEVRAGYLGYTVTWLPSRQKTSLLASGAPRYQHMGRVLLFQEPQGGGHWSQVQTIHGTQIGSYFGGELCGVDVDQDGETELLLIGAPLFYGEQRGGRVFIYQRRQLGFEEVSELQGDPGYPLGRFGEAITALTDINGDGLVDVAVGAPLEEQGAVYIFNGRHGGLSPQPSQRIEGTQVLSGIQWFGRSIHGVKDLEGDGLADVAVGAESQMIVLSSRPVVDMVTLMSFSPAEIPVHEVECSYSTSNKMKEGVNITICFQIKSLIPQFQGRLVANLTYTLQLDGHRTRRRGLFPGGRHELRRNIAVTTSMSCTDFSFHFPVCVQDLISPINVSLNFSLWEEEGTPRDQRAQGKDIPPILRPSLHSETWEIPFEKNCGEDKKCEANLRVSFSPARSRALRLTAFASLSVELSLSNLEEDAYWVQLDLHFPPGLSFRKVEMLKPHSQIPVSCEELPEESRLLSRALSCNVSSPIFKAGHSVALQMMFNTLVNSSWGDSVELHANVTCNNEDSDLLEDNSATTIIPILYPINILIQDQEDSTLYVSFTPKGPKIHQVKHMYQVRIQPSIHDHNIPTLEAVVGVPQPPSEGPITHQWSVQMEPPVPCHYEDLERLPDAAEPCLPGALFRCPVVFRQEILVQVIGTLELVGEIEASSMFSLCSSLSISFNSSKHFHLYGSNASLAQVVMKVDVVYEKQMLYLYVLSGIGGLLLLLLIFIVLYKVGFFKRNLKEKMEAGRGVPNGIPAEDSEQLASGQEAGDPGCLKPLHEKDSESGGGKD
# CD11a (human) [20] = target: CD11a (human) (UniProt P20701); assay: FACS on Jurkat D1.1 cells; background subtracted, rounded to nearest ten
# CD58 (human) [21] = target: CD58 (human) (UniProt P19256); assay: FACS on Jurkat B2.7 cells; background subtracted, rounded to nearest ten
# Sequence of CD58 (human) (P19256 29-250): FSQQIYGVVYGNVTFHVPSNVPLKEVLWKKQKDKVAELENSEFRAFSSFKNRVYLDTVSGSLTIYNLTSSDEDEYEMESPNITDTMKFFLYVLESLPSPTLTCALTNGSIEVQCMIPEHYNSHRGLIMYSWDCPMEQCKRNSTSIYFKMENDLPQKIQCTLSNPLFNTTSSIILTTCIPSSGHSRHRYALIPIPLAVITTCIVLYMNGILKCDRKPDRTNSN
# CD58 (human) [22] = target: CD58 (human) (UniProt P19256); assay: FACS on Jurkat D1.1 cells; background subtracted, rounded to nearest ten
# [23] = target: CD43RO (so in the source); T200. LCA) (human) (UniProt P08575); assay: FACS on Jurkat B2.7 cells; background subtracted, rounded to nearest ten
# Sequence of CD43RO (so in the source); T200. LCA) (human) (P08575 26-1306): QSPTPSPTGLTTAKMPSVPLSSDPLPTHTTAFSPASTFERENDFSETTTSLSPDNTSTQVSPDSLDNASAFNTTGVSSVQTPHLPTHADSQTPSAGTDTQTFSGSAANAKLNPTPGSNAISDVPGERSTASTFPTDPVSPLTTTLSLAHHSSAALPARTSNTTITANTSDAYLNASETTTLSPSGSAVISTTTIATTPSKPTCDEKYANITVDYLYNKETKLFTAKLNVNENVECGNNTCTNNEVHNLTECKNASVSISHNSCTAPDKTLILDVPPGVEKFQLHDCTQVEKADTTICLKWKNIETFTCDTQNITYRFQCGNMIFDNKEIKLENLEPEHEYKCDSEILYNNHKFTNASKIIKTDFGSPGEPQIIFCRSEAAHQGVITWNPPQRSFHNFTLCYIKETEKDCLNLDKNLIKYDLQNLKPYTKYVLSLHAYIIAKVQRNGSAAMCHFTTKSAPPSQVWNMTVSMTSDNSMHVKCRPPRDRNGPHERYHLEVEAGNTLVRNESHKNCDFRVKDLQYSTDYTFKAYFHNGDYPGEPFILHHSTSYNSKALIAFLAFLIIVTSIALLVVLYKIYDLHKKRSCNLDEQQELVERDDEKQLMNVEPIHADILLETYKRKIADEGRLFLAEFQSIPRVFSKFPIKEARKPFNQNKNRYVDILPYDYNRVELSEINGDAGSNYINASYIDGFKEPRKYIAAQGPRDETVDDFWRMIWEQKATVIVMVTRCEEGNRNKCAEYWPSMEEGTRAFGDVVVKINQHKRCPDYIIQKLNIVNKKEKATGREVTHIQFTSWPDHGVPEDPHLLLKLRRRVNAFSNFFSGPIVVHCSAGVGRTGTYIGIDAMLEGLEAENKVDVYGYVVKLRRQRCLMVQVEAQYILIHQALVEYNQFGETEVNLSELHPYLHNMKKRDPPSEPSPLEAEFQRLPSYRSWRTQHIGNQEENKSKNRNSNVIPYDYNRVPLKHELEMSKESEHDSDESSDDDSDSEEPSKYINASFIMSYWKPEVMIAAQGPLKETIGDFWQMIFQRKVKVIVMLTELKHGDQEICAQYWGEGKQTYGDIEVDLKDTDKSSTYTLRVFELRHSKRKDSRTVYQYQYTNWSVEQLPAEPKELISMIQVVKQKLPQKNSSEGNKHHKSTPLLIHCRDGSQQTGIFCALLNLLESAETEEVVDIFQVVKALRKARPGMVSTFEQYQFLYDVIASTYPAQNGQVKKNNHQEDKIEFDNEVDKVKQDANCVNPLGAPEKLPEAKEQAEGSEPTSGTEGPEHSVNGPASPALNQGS
# [24] = target: CD43RO (so in the source); T200. LCA) (human) (UniProt P08575); assay: FACS on Jurkat D1.1 cells; background subtracted, rounded to nearest ten
# MHC-classI (human) [25] = assay: FACS on Jurkat B2.7 cells; background subtracted, rounded to nearest ten
# MHC-classI (human) [26] = assay: FACS on Jurkat D1.1 cells; background subtracted, rounded to nearest ten
# Sequence of CD45RA (human) (P08575 26-1306): as above
# Sequence of CD7 (human) (P09564 26-240): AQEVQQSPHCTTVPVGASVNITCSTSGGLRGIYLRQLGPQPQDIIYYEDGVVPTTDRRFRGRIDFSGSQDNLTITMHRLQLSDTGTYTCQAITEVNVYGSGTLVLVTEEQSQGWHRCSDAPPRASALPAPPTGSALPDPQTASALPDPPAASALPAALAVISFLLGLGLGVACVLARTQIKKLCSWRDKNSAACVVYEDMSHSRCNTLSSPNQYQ
substance,measurement,setting,value
2H4 (antibody),Mean Fluorescence Intensity (arbitrary units),CD45RA (human) [1],40
same,Mean Fluorescence Intensity (arbitrary units),CD45RA (human) [2],30
3A1 (anti-CD7) (antibody),Mean Fluorescence Intensity (arbitrary units),CD7 (human) [3],190
same,Mean Fluorescence Intensity (arbitrary units),CD7 (human) [4],200
3G8 (antibody),Mean Fluorescence Intensity (arbitrary units),CD16 (human) [5],20
same,Mean Fluorescence Intensity (arbitrary units),CD16 (human) [6],20
4B4 (antibody),Mean Fluorescence Intensity (arbitrary units),CD29 (human) [7],110
same,Mean Fluorescence Intensity (arbitrary units),CD29 (human) [8],140
BMA-031 (antibody),Mean Fluorescence Intensity (arbitrary units),TCRα/β (human) [9],40
same,Mean Fluorescence Intensity (arbitrary units),TCRα/β (human) [10],10
OKT1 (anti-CD5) (antibody),Mean Fluorescence Intensity (arbitrary units),CD5 (human) [11],90
same,Mean Fluorescence Intensity (arbitrary units),CD5 (human) [12],20
OKT3 (anti-CD3) (antibody),Mean Fluorescence Intensity (arbitrary units),CD3 (human) [13],80
same,Mean Fluorescence Intensity (arbitrary units),CD3 (human) [14],30
OKT4 (anti-CD4) (antibody),Mean Fluorescence Intensity (arbitrary units),CD4 (human),130
OKT6 (anti-CD1a) (antibody),Mean Fluorescence Intensity (arbitrary units),CD1a (human) [15],10
same,Mean Fluorescence Intensity (arbitrary units),CD1a (human) [16],10
TS1/18.1.2.11.4 (anti-LFA-1β) (antibody),Mean Fluorescence Intensity (arbitrary units),CD18 (human) [17],80
same,Mean Fluorescence Intensity (arbitrary units),CD18 (human) [18],30
TS1/22.1.13 (anti-LFA-1a) (antibody),Mean Fluorescence Intensity (arbitrary units),CD11a (human) [19],100
same,Mean Fluorescence Intensity (arbitrary units),CD11a (human) [20],40
TS2/9.1.4.3 (anti-LFA-3) (antibody),Mean Fluorescence Intensity (arbitrary units),CD58 (human) [21],60
same,Mean Fluorescence Intensity (arbitrary units),CD58 (human) [22],40
UCHL1 (antibody),Mean Fluorescence Intensity (arbitrary units),[23],20
same,Mean Fluorescence Intensity (arbitrary units),[24],10
W6/32 (anti-MHC class I) (antibody),Mean Fluorescence Intensity (arbitrary units),MHC-classI (human) [25],70
same,Mean Fluorescence Intensity (arbitrary units),MHC-classI (human) [26],190
